From paper PMC9482650, “Quantitative fragmentomics allow affinity mapping of interactomes” (Nature Communications, 2022) come the findings set out here.

Some targets named below: AHNAK1, Q09666; DLG1_3, Q12959; DLG2_3, Q15700; GOPC, Q9HD26; GORASP1, Q9BQQ3; GRID2IP_2, A4D2P6; GRIP2_6, Q9C0E4; GRIP2_7, Q9C0E4; Inadl_8, Q8NI35; Inadl_9, Q8NI35; MAGI1_1, Q96QZ7; PARD3_3, Q8TEW0.
Common to all, as to assay: holdup assay
Parameters in all cases: key: below the threshold = too weak to quantify, mostly under pKd 3.1 to 4
Holding throughout (details): plain residues with an end cap or a label only (N-terminal biotin on a linker: ado-ado)

A further assay has as its target T1, APBA1_1, Q02410.
T1 sequence (Q02410 651-752, limits assumed, looked up): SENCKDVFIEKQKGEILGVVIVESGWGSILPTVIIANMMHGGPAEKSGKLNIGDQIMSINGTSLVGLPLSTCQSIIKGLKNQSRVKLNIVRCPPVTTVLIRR

The target of a further assay is T2, APBA2_1, Q99767.
T2 sequence (Q99767 563-664, limits assumed, looked up): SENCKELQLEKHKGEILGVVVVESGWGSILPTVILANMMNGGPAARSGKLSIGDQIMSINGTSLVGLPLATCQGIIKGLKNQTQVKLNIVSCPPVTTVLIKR

Another assay concerns the target T3, APBA3_1, O96018.
T3 sequence (O96018 389-490, limits assumed, looked up): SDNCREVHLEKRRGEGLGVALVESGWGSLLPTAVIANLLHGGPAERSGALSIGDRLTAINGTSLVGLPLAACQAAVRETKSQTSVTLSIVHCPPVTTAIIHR

The target in a further assay is T4, GRIP1_2, Q9Y3R0.
T4 sequence (Q9Y3R0 145-248, limits assumed, looked up): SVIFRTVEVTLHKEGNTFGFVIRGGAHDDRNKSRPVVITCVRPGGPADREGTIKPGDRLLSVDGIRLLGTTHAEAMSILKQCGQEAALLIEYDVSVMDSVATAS

A further assay has as its target T5, GRIP1_5, Q9Y3R0.
T5 sequence (Q9Y3R0 568-668, limits assumed, looked up): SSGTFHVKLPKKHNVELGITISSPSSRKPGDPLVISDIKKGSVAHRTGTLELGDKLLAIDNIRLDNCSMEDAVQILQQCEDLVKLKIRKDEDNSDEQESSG

For the next assay, the target named is T6, MPDZ_5, O75970.
T6 sequence (O75970 695-796, limits assumed, looked up): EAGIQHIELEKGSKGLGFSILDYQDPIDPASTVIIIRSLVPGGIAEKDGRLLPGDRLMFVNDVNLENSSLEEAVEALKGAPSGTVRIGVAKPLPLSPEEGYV

The next assay has as its target T7, NHERF3_1, Q5T2W1.
T7 sequence (Q5T2W1 4-100, limits assumed, looked up): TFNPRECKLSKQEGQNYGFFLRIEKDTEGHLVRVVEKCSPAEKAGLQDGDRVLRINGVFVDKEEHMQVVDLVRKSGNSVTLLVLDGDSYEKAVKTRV

The next assay concerns the target T8, SHANK1, Q9Y566.
T8 sequence (Q9Y566 658-767, limits assumed, looked up): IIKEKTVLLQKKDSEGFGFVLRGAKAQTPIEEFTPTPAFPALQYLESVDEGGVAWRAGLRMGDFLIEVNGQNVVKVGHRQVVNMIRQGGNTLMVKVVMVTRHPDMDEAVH

For the next assay, the target named is T9, SNTB1, Q13884.
T9 sequence (Q13884 107-205, limits assumed, looked up): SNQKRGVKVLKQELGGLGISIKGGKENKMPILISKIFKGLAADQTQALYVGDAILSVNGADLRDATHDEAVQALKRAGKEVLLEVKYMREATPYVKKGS

The target of the next assay is T10, SNTG1, Q9NSN8.
T10 sequence (Q9NSN8 52-150, limits assumed, looked up): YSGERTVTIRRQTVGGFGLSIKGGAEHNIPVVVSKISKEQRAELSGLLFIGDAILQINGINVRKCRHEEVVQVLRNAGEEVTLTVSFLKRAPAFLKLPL

For another assay, the target named is T11, SNTG2, Q9NY99.
T11 sequence (Q9NY99 68-166, limits assumed, looked up): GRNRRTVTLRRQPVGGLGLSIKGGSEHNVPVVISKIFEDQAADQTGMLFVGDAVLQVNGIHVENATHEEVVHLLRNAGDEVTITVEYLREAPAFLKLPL

The target of another assay is T12, TJP3_3, O95049.
T12 sequence (O95049 375-456, limits assumed, looked up): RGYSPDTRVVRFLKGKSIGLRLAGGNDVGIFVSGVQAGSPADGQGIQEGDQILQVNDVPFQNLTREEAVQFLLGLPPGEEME

Sequence of PARD3_3, Q8TEW0 (Q8TEW0 582-685): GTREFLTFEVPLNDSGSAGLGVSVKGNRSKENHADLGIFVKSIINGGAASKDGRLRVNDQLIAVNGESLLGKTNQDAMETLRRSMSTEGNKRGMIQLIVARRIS
Sequence of MAGI1_1, Q96QZ7 (Q96QZ7 1-106): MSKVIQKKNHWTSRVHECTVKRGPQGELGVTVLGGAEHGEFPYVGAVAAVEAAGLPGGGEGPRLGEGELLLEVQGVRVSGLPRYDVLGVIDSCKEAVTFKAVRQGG
Sequence of GRID2IP_2, A4D2P6 (A4D2P6 272-370): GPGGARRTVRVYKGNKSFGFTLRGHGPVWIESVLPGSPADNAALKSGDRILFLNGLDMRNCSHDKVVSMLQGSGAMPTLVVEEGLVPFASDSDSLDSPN
Sequence of GRIP2_6, Q9C0E4 (Q9C0E4 648-740): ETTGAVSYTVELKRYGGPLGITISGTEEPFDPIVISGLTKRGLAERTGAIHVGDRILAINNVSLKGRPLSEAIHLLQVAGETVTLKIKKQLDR
Sequence of AHNAK1, Q09666 (Q09666 4-100): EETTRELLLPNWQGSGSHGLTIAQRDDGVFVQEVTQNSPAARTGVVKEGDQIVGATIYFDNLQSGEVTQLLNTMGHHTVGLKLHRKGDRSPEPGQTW
Sequence of Inadl_8, Q8NI35 (Q8NI35 1425-1530): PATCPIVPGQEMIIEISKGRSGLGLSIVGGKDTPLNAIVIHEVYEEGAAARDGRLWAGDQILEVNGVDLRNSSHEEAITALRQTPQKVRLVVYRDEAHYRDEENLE
Sequence of Inadl_9, Q8NI35 (Q8NI35 1530-1615): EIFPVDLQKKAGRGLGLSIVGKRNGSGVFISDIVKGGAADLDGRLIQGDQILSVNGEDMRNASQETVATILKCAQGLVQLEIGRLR
Sequence of DLG1_3, Q12959 (Q12959 457-571): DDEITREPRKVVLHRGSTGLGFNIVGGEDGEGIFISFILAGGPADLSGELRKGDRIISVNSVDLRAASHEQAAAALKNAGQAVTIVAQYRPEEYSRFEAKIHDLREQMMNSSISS
Sequence of GRIP2_7, Q9C0E4 (Q9C0E4 934-1023): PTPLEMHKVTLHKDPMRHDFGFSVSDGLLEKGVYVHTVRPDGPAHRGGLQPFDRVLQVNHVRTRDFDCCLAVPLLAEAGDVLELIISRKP
Sequence of GORASP1, Q9BQQ3 (Q9BQQ3 1-208): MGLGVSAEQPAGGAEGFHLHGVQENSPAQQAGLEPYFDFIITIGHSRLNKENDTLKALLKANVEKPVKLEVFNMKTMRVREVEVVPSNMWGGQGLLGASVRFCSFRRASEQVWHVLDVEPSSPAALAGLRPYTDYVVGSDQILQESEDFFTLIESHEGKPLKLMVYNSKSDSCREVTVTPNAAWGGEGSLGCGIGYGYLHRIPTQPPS

ETSLVKGIDI [DENND5A, Q6IQ26]: the pKd entry was “below the threshold” with AHNAK1, Q09666; “below the threshold” with APBA1_1, Q02410; “below the threshold” in the assay with APBA2_1, Q99767; “below the threshold” in the assay with APBA3_1, O96018; 3.76 with DLG1_3, Q12959; “below the threshold” with DLG2_3, Q15700. Further, the pKd entry was “below the threshold” with GOPC, Q9HD26; “below the threshold” with GORASP1, Q9BQQ3; “below the threshold” in the assay with GRID2IP_2, A4D2P6; “below the threshold” with GRIP1_2, Q9Y3R0; “below the threshold” with GRIP1_5, Q9Y3R0; 3.55 with GRIP2_6, Q9C0E4. The pKd with GRIP2_7, Q9C0E4 is 3.58; with Inadl_8, Q8NI35, “below the threshold”; with Inadl_9, Q8NI35, 3.63; with MAGI1_1, Q96QZ7, 3.55; with MPDZ_5, O75970 it was “below the threshold”; with NHERF3_1, Q5T2W1, “below the threshold”. For the same molecule, the pKd in the assay with PARD3_3, Q8TEW0 was 3.83; with SHANK1, Q9Y566 it was “below the threshold”; with SNTB1, Q13884, “below the threshold”; in the assay with SNTG1, Q9NSN8, “below the threshold”; in the assay with SNTG2, Q9NY99, “below the threshold”; with TJP3_3, O95049, “below the threshold”.
Consider NASRTRITFV [MCM7, P33993], for which the pKd result in the assay with AHNAK1, Q09666 is “below the threshold”; with APBA1_1, Q02410, “below the threshold”; in the assay with APBA2_1, Q99767, “below the threshold”; in the assay with APBA3_1, O96018, “below the threshold”; in the assay with DLG1_3, Q12959, 4.12; in the assay with DLG2_3, Q15700 it was 4.58. Besides, the pKd is 4.2 with GOPC, Q9HD26; 4.86 with GORASP1, Q9BQQ3; 4.97 in the assay with GRID2IP_2, A4D2P6; “below the threshold” with GRIP1_2, Q9Y3R0; “below the threshold” in the assay with GRIP1_5, Q9Y3R0; 3.58 with GRIP2_6, Q9C0E4. Moreover, the pKd with GRIP2_7, Q9C0E4 is 4.27; with Inadl_8, Q8NI35, 5.05; with Inadl_9, Q8NI35, 4.11; with MAGI1_1, Q96QZ7, “below the threshold”; with MPDZ_5, O75970 it was 4.37; with NHERF3_1, Q5T2W1, 4.28. Further, the pKd result with PARD3_3, Q8TEW0 was “below the threshold”; with SHANK1, Q9Y566, “below the threshold”; with SNTB1, Q13884 it was 5.13; with SNTG1, Q9NSN8 it was 3.71; with SNTG2, Q9NY99, 3.84; in the assay with TJP3_3, O95049, 3.53.
With PAPGQHTTQI [STK16, O75716], the pKd result in the assay with AHNAK1, Q09666 is “below the threshold”; with APBA1_1, Q02410, “below the threshold”; with APBA2_1, Q99767 it was “below the threshold”; with APBA3_1, O96018 it was “below the threshold”; in the assay with DLG1_3, Q12959, 3.71; with DLG2_3, Q15700, 3.67. Besides, the pKd was 3.77 with GOPC, Q9HD26; “below the threshold” in the assay with GORASP1, Q9BQQ3; 3.98 in the assay with GRID2IP_2, A4D2P6; “below the threshold” with GRIP1_2, Q9Y3R0; “below the threshold” with GRIP1_5, Q9Y3R0; “below the threshold” with GRIP2_6, Q9C0E4. The pKd result in the assay with GRIP2_7, Q9C0E4 was “below the threshold”; in the assay with Inadl_8, Q8NI35, “below the threshold”; in the assay with Inadl_9, Q8NI35, “below the threshold”; in the assay with MAGI1_1, Q96QZ7 it was “below the threshold”; with MPDZ_5, O75970, “below the threshold”; with NHERF3_1, Q5T2W1, 4.26. The pKd result is “below the threshold” with PARD3_3, Q8TEW0; 3.75 with SHANK1, Q9Y566; 3.57 with SNTB1, Q13884; “below the threshold” in the assay with SNTG1, Q9NSN8; “below the threshold” with SNTG2, Q9NY99; “below the threshold” with TJP3_3, O95049.
Regarding QSPPNIYYKV [EFNB3, Q15768], the pKd result is “below the threshold” with AHNAK1, Q09666; “below the threshold” with APBA1_1, Q02410; “below the threshold” in the assay with APBA2_1, Q99767; “below the threshold” with APBA3_1, O96018; 3.72 in the assay with DLG1_3, Q12959; “below the threshold” in the assay with DLG2_3, Q15700. The pKd was 3.51 with GOPC, Q9HD26; 4.75 with GORASP1, Q9BQQ3; “below the threshold” in the assay with GRID2IP_2, A4D2P6; 3.52 with GRIP1_2, Q9Y3R0; “below the threshold” with GRIP1_5, Q9Y3R0; 4.4 with GRIP2_6, Q9C0E4. The pKd with GRIP2_7, Q9C0E4 was 4.41; with Inadl_8, Q8NI35, “below the threshold”; in the assay with Inadl_9, Q8NI35, 3.53; in the assay with MAGI1_1, Q96QZ7 it was “below the threshold”; with MPDZ_5, O75970, “below the threshold”; with NHERF3_1, Q5T2W1 it was 3.61. In addition, the pKd entry is “below the threshold” with PARD3_3, Q8TEW0; “below the threshold” with SHANK1, Q9Y566; “below the threshold” with SNTB1, Q13884; “below the threshold” with SNTG1, Q9NSN8; 3.7 with SNTG2, Q9NY99; “below the threshold” with TJP3_3, O95049.

The term pKd denotes the Kd on a negative log10 scale, so that one unit is a factor of ten.
